PMC3662962 (Biochemical and biophysical research communications, 2010)

Target: the molecule itself

B1: PAS domain of Mycobacterium tuberculosis Rv1364c (residues 1-163) (domain or fragment)
chain: MAAEMDWDKTVGAAEDVRRIFEHIPAILVGLEGPDHRFVAVNAAYRGFSPLLDTVGQPAREVYPELEGQQIYEMLDRVYQTGEPQSGSEWRLQTDYDGSGVEERYFDFVVTPRRRADGSIEGVQLIVDDVTSRVRARQAAEARVEELSERYRNVRDSATVMQQ
modifications: Se-Methionine labeled (the crystallised protein only)
- stoichiometry N: 2
